Changes are numbered by the printed parent chain.
T1: human recombinant GIP receptor (human, UniProt P48546 22-466)
T1 construct: whole, on cells; Assayed as washed membranes of CHO-K1 cells expressing the receptor; also called hGIP receptor
T1 sequence (looked up): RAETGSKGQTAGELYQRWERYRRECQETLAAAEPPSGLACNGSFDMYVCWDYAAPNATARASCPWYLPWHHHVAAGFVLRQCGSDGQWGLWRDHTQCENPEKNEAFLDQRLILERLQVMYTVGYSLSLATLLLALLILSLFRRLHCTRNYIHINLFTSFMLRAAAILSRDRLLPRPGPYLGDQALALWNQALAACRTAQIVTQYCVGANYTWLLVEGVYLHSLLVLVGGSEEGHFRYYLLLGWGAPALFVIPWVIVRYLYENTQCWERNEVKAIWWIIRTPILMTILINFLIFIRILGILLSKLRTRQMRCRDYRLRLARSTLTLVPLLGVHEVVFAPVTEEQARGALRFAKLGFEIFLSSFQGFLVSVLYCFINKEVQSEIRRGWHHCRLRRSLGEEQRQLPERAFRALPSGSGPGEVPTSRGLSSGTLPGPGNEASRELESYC

B1: (4Hppa^1, Aib^2, 11, Nle^14)hGIP(1-30)-NH2 (peptide)
peptide: XXEGTFISDYXIAXDKIHQQDFVNWLLAQK
modifications: 4Hppa at 1; Aib at 2 and 11; Nle at 14; C-terminal amide
B2: (4Hppa^1, Aib^2, A5c^7)hGIP(1-30)-NH2 (peptide)
peptide: B1 peptide with I7X, X11S, X14M
modifications: 4Hppa at 1; Aib at 2; A5c at 7; C-terminal amide
B3: (3F-Tyr^1, Gly^2, A5c^11, 40)hGIP(1-42)-OH (peptide)
peptide: YGEGTFISDYXIAMDKIHQQDFVNWLLAQKGKKNDWKHNXTQ
modifications: 3F-Tyr at 1; A5c at 11 and 40
B4: [Tyr^1-Ψ-(CH2-NH)Gly^2, A5c^11, 41]hGIP(1-42)-OH (peptide)
peptide: B3 peptide with X40I, T41X
modifications: pseudopeptide bond Ψ-(CH2-NH) between Tyr 1 and Gly 2; A5c at 11 and 41
B5: (4Hppa^1, Aib^2, 11)hGIP(1-30)-NH2 (peptide)
peptide: B1 peptide with X14M
modifications: 4Hppa at 1; Aib at 2 and 11; C-terminal amide
B6: (4Me-Phe^1, Aib^2, A5c^11, His^43)hGIP(1-43)-OH (peptide)
peptide: FXEGTFISDYXIAMDKIHQQDFVNWLLAQKGKKNDWKHNITQH
modifications: 4Me-Phe at 1; Aib at 2; A5c at 11
B7: (3MeO-Tyr^1, Aib^2, A5c^11, 14, His^43)hGIP(1-43)-OH (peptide)
peptide: B6 peptide with F1X, M14X
modifications: 3MeO-Tyr at 1; Aib at 2; A5c at 11 and 14
B8: (3MeO-Tyr^1, Aib^2, A5c^11, 14, 41-His^43)hGIP(1-43)-OH (peptide)
peptide: B6 peptide with F1X, M14X, T41X
modifications: 3MeO-Tyr at 1; Aib at 2; A5c at 11, 14 and 41
B9: (3Br-Tyr^1, Aib^2, A5c^11, 14, His^43)hGIP(1-43)-OH (peptide)
peptide: B6 peptide with F1Y, M14X
modifications: 3Br-Tyr at 1; Aib at 2; A5c at 11 and 14
B10: (2,6Me-Tyr^1, Aib^2, A5c^11, 14, His^43)hGIP(1-43)-OH (peptide)
peptide: B6 peptide with F1Y, M14X
modifications: 2,6Me-Tyr at 1; Aib at 2; A5c at 11 and 14
B11: (3Cl-Tyr^1, D-Ala^2, A5c^11, Nle^14, His^43)hGIP(1-43)-OH (peptide)
peptide: B6 peptide with F1Y, X2A, M14X
modifications: 3Cl-Tyr at 1; D-Ala at 2; A5c at 11; Nle at 14
notes: X stands for a non-natural residue
B12: (3Cl-Tyr^1, Aib^2, A5c^11, Nle^14, His^43)hGIP(1-43)-OH (peptide)
peptide: B6 peptide with F1Y, M14X
modifications: 3Cl-Tyr at 1; Aib at 2; A5c at 11; Nle at 14
B13: (3MeO-Tyr^1, Aib^2, A5c^11, His^43)hGIP(1-43)-OH (peptide)
peptide: B6 peptide with F1X
modifications: 3MeO-Tyr at 1; Aib at 2; A5c at 11
B14: (3Cl-Tyr^1, D-Ala^2, A5c^11, 14, His^43)hGIP(1-43)-OH (peptide)
peptide: B6 peptide with F1Y, X2A, M14X
modifications: 3Cl-Tyr at 1; D-Ala at 2; A5c at 11 and 14
notes: as for B11
B15: (2,6Me-Tyr^1, Aib^2, A5c^11, Nle^14, His^43)hGIP(1-43)-OH (peptide)
peptide: B6 peptide with F1Y, M14X
modifications: 2,6Me-Tyr at 1; Aib at 2; A5c at 11; Nle at 14
B16: (3Br-Tyr^1, Aib^2, A5c^11, Nle^14, His^43)hGIP(1-43)-OH (peptide)
peptide: B6 peptide with F1Y, M14X
modifications: 3Br-Tyr at 1; Aib at 2; A5c at 11; Nle at 14
B17: (3Cl-Tyr^1, Aib^2, A5c^11, 14, His^43)hGIP(1-43)-OH (peptide)
peptide: B6 peptide with F1Y, M14X
modifications: 3Cl-Tyr at 1; Aib at 2; A5c at 11 and 14
B18: [3Cl-Tyr^1, D-Ala^2, A5c^11, 14, Cys^43(succinimide)]hGIP(1-43)-OH (peptide)
peptide: B6 peptide with F1Y, X2A, M14X, H43C
modifications: 3Cl-Tyr at 1; D-Ala at 2; A5c at 11 and 14; Cys(succinimide) at 43
notes: as for B11
B19: [3Cl-Tyr^1, D-Ala^2, A5c^11, 14, Lys^43(N-C(O)-(CH2)10-CH3)]hGIP(1-43)-OH (peptide)
peptide: B6 peptide with F1Y, X2A, M14X, H43K
modifications: 3Cl-Tyr at 1; D-Ala at 2; A5c at 11 and 14; Lys(N-C(O)-(CH2)10-CH3) at 43
notes: as for B11
B20: [3Cl-Tyr^1, D-Ala^2, A5c^11, Nle^14, Lys^43(N-C(O)-(CH2)10-CH3)]hGIP(1-43)-OH (peptide)
peptide: B6 peptide with F1Y, X2A, M14X, H43K
modifications: 3Cl-Tyr at 1; D-Ala at 2; A5c at 11; Nle at 14; Lys(N-C(O)-(CH2)10-CH3) at 43
notes: as for B11
B21: [3Cl-Tyr^1, Aib^2, A5c^11, Nle^14, Cys^43(succinimide-N-(CH2)2-C(O)NH-(CH2)3-O-CH2-CH(20K PEG)-CH2-20K PEG)]hGIP(1-43)-NH2 (peptide)
peptide: B6 peptide with F1Y, M14X, H43C
modifications: 3Cl-Tyr at 1; Aib at 2; A5c at 11; Nle at 14; Cys(succinimide-N-(CH2)2-C(O)NH-(CH2)3-O-CH2-CH(20K PEG)-CH2-20K PEG) at 43; C-terminal amide
notes: Branched PEGylated analogue
B22: (2,6Me-Tyr^1, Aib^2, A5c^11, His^43)hGIP(1-43)-OH (peptide)
peptide: B6 peptide with F1Y
modifications: 2,6Me-Tyr at 1; Aib at 2; A5c at 11
B23: (3Cl-Tyr^1, Aib^2, A5c^11, Nle^14, Cys^43)hGIP(1-43)-OH (peptide)
peptide: B6 peptide with F1Y, M14X, H43C
modifications: 3Cl-Tyr at 1; Aib at 2; A5c at 11; Nle at 14
B24: [3Cl-Tyr^1, D-Ala^2, A5c^11, Nle^14, Cys^43(succinimide)]hGIP(1-43)-OH (peptide)
peptide: B6 peptide with F1Y, X2A, M14X, H43C
modifications: 3Cl-Tyr at 1; D-Ala at 2; A5c at 11; Nle at 14; Cys(succinimide) at 43
notes: as for B11
B25: (His^1, Aib^2, 13, Nle^14)hGIP(1-42)-OH (peptide)
peptide: HXEGTFISDYSIXXDKIHQQDFVNWLLAQKGKKNDWKHNITQ
modifications: Aib at 2 and 13; Nle at 14
B26: (3,4F-Phe^1, Aib^2, A5c^11, Nle^14)hGIP(1-42)-OH (peptide)
peptide: B25 peptide with H1F, S11X, X13A
modifications: 3,4F-Phe at 1; Aib at 2; A5c at 11; Nle at 14
B27: (2,6Me-Tyr^1, Aib^2, A5c^11, 41)hGIP(1-42)-OH (peptide)
peptide: B3 peptide with G2X, X40I, T41X
modifications: 2,6Me-Tyr at 1; Aib at 2; A5c at 11 and 41

Biological target: T1, human recombinant GIP receptor
Experiment: displacement of [125I]GIP, membranes of CHO-K1 cells expressing human GIP receptor
Description: Membranes for in vitro receptor binding assays were prepared by homogenizing the CHO—K1 clonal cells expressing the human recombinant GIP receptor, with a Brinkman Polytron (setting 6, 15 sec), in ice-cold 50 mM Tris-HCl and then subjected to two centrifugations at 39,000 g for 10 minutes, with a resuspension in fresh buffer in between. For the assay, aliquots of the washed membrane preparations were incubated (100 minutes at 25° C. with 0.05 nM [¹²⁵1]GIP (2200 Ci/mmol) in 50 mM Tris-HCl, 0.1 mg/ml bacitracin, and 0.1% BSA. The final assay volume was 0.5 ml. The incubations were terminated by rapid filtration through GF/C filters (pre-soaked in 0.5% polyethylenimine) using a Brandel filtration manifold. Each tube and filter were then washed three times with 5-ml aliquots of ice-cold buffer.
Specific binding was defined as the total radioligand bound minus that bound in the presence of 1000 nM GIP.

Row | Ki [nM] | Binder
1 | 20.3 | B1
2 | 5 | B2
3 | 10.4 | B3
4 | 49 | B4
5 | 15.4 | B5
6 | 9.13 | B6
7 | 9.34 | B7
8 | 6.4 | B8
9 | 0.92 | B9
10 | 50.2 | B10
11 | 8.89 | B11
12 | 0.76 | B12
13 | 3.9 | B13
14 | 5.06 | B14
15 | 39 | B15
16 | 1.09 | B16
17 | 0.78 | B17
18 | 1.41 | B18
19 | 9.06 | B19
20 | 6.64 | B20
21 | 42.4 | B21
22 | 35 | B22
23 | 0.83 | B23
24 | 9.13 | B24
25 | 3.33 | B25
26 | 15.7 | B26
27 | 1.03 | B27

Source: US20150175665A1 (IPSEN PHARMA S A S, published 2015)
